Results on three molecules are retold here after patent US20210171647A1.

The target of assay [1] is human OX40, full-length, on cells (human) (UniProt P43489). Description: flow cytometry, MFI against antibody concentration; neither the legend nor paragraph 266 names the cells, target taken as cell-surface human OX40 because the antibodies are anti-OX40. In general terms: Flow cytometry measures light scatter and fluorescence of single cells or particles in a stream.
Assay [2] has the same target. Description: FACS, transfected 293F cells, antibody 2 ug/mL.
The target of assay [3] is mouse OX40 (mPro1) on transfected 293F cells (mouse) (UniProt P47741). Description: FACS, transfected 293F cells, antibody 2 ug/mL.
Sequence of mouse OX40 (mPro1) on transfected 293F cells (mouse) (P47741 20-272): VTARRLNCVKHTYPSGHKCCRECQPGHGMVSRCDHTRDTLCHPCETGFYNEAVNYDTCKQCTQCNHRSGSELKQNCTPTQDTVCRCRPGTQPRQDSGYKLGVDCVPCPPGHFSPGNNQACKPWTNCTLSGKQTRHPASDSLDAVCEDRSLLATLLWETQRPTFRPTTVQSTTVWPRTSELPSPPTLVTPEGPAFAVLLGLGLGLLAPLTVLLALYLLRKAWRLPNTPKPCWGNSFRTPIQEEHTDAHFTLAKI
Assay [4] has as its target human CD40 (hPro40) on transfected 293F cells (human) (UniProt P25942). Description: FACS, transfected 293F cells, antibody 2 ug/mL.
Assay [5] concerns the target human OX40 extracellular domain (ECD) protein (human) (UniProt P43489). Description: epitope binning by competition against labelled BMK10 on human OX40 (self-competition control); the antibody named in the legend box is titrated; the text describes an ELISA, the axis on the sheet reads MFI. In general terms: In an ELISA, binding on a coated surface is turned into a signal by an enzyme label.

Assay [6] has as its target human OX40, full-length, on cells (human) (UniProt P43489). Description: flow cytometry on human OX40 transfected CHO-K1 cells.
For assay [7], the target named is human OX40 extracellular domain (ECD) protein (human) (UniProt P43489). Description: SPR, Biacore T200, antibody captured, OX40 as analyte. A general note: SPR reads the build-up and loss of mass on a sensor chip optically.
Sequence of human OX40 extracellular domain (ECD) protein (human) (P43489 29-214): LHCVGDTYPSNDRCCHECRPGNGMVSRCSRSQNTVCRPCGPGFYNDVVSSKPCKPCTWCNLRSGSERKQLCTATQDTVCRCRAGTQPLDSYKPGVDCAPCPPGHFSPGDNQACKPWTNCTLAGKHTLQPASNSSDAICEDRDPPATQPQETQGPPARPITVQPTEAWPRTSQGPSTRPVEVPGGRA
For assay [8], the target named is human OX40, full-length, on cells (human) (UniProt P43489). Description: flow cytometry, CHO-K1 cells expressing human OX40, MESF beads.
Assay [9] deals with human OX40 extracellular domain (ECD) protein (human) (UniProt P43489). The experiment in a line: competition ELISA: human OX40 ECD coated, antibody titrated in a mix with a constant concentration of OX40L, bound OX40L detected at OD450.
For assay [10], the target named is human OX40, full-length, on cells (human) (UniProt P43489). The experiment in a line: flow cytometry on activated human CD4+ T cells.
Assay [11] has as its target xPro1.FL-x10: CRDmox40_1,2,4 (human; mouse) (UniProt P47741). The experiment in a line: FACS, transfected 293F cells, antibody 1 ug/mL.
Assay [12] concerns the target xPro1.FL-x6: CRDmox40_2-3 (human; mouse) (UniProt P43489). The experiment in a line: FACS, transfected 293F cells, antibody 1 ug/mL.
Assay [13] concerns the target xPro1.FL-x11: CRDmox40_1,3,4 (human; mouse) (UniProt P47741). Description: FACS, transfected 293F cells, antibody 1 ug/mL.
Assay [14] deals with xPro1.FL-x1: CRDmox40_1 (human; mouse) (UniProt P47741). The experiment in a line: FACS, transfected 293F cells, antibody 1 ug/mL.
Assay [15] concerns the target xPro1.FL-x3: CRDmox40_3 (human; mouse) (UniProt P43489). The experiment in a line: FACS, transfected 293F cells, antibody 1 ug/mL.
The target in assay [16] is xPro1.FL-x5: CRDmox40_1-2 (human; mouse) (UniProt P47741). Description: FACS, transfected 293F cells, antibody 1 ug/mL.
The target of assay [17] is xPro1.FL-x8: CRDmox40_1-3 (human; mouse) (UniProt P47741). Description: FACS, transfected 293F cells, antibody 1 ug/mL.
For assay [18], the target named is xPro1.FL-x7: CRDmox40_3-4 (human; mouse) (UniProt P43489). Description: FACS, transfected 293F cells, antibody 1 ug/mL.
Sequence of xPro1.FL-x7: CRDmox40_3-4 (human; mouse) (P43489 other isoform, or with tags, fused parts or gaps, form in doubt): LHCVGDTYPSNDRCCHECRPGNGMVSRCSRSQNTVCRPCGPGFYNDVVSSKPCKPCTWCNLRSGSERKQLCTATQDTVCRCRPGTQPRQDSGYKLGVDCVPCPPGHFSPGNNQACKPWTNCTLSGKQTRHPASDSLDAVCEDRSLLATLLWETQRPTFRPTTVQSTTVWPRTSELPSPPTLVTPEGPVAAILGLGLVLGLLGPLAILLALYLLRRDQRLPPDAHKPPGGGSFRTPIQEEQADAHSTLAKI
The target of assay [19] is xPro1.FL.x2: CRDmox40_2 (human; mouse) (UniProt P43489). Description: FACS, transfected 293F cells, antibody 1 ug/mL.
Sequence of xPro1.FL.x2: CRDmox40_2 (human; mouse) (P43489 other isoform, or with tags, fused parts or gaps, form in doubt): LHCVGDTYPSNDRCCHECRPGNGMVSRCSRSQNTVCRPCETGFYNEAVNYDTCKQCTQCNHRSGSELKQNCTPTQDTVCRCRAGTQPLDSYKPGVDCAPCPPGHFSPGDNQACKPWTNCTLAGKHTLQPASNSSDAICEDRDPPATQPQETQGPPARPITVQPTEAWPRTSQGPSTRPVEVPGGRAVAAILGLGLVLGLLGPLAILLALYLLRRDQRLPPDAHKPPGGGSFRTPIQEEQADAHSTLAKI
In assay [20] the target is xPro1.FL-x9: CRDmox40_2-4 (human; mouse) (UniProt P43489). The experiment in a line: FACS, transfected 293F cells, antibody 1 ug/mL.
Sequence of xPro1.FL-x9: CRDmox40_2-4 (human; mouse) (P43489 other isoform, or with tags, fused parts or gaps, form in doubt): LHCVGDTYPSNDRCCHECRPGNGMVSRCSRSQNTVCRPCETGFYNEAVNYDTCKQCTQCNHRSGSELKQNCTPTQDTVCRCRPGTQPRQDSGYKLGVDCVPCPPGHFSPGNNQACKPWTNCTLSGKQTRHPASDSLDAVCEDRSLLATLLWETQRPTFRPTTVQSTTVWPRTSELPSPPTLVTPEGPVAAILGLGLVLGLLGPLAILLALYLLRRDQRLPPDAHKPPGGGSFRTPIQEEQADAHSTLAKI
The target of assay [21] is xPro1.FL-x4: CRDmox40_4 (human; mouse) (UniProt P43489). Description: FACS, transfected 293F cells, antibody 1 ug/mL.
Sequence of xPro1.FL-x4: CRDmox40_4 (human; mouse) (P43489 other isoform, or with tags, fused parts or gaps, form in doubt): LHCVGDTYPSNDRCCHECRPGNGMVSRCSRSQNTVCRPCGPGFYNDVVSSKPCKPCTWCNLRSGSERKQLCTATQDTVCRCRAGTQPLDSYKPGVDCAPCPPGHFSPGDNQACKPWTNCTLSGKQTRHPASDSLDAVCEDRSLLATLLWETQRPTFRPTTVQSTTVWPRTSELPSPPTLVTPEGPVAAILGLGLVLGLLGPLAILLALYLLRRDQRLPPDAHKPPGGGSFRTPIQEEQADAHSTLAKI

Sequence of xPro1.FL-x6: CRDmox40_2-3 (human; mouse) (P43489 other isoform, or with tags, fused parts or gaps, form in doubt): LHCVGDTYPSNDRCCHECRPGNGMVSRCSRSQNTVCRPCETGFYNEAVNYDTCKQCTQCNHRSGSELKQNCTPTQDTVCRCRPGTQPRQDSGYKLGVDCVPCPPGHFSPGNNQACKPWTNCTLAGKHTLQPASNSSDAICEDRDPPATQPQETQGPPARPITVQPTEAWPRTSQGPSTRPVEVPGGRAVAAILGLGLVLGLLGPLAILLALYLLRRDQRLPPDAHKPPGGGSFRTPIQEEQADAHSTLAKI
Sequence of human OX40, full-length, on cells (human) (P43489 29-277): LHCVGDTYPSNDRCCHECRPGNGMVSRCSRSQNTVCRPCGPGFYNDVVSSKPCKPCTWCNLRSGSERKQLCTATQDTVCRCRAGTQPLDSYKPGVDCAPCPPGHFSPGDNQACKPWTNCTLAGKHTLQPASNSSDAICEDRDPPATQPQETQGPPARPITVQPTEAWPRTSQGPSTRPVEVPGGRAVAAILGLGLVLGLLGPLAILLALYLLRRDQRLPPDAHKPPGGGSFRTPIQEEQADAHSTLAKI
Sequence of xPro1.FL-x3: CRDmox40_3 (human; mouse) (P43489 other isoform, or with tags, fused parts or gaps, form in doubt): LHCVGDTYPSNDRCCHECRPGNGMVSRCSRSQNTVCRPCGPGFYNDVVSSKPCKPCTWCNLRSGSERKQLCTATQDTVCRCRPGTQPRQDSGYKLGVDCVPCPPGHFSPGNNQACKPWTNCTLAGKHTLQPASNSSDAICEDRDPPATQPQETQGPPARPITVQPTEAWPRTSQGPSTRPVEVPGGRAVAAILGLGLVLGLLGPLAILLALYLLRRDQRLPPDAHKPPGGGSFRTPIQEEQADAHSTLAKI
Sequence of human CD40 (hPro40) on transfected 293F cells (human) (P25942 21-277): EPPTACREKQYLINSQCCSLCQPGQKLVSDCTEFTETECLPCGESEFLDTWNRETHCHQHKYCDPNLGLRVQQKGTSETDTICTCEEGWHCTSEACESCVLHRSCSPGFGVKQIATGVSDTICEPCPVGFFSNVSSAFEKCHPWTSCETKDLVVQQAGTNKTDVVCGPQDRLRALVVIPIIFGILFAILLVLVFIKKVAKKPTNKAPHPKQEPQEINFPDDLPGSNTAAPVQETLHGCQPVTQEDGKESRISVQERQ

B1: BMK10 (antibody, from another filing, V domains shown)
VH: EVQLVQSGAEVKKPGASVKVSCKASGYTFTDSYMSWVRQAPGQGLEWIGDMYPDNGDSSYNQKFRERVTITRDTSTSTAYLELSSLRSEDTAVYYCVLAPRWYFSVWGQGTLVTVSS
VL: DIQMTQSPSSLSASVGDRVTITCRASQDISNYLNWYQQKPGKAPKLLIYYTSRLRSGVPSRFSGSGSGTDFTLTISSLQPEDFATYYCQQGHTLPPTFGQGTKVEIK
As to B1, the EC50 (read off the curve) (commonly the concentration at which the effect is half-maximal) worked out at 0.8 nM in assay [1], 0.6 nM in [6] and 0.7 nM in assay [10]. Besides, the values for the MFI in assay [2], in assay [3] and in assay [4] were 27600, 5000 and 28.8, respectively. The PE + % in [2] was 98.3%; in assay [3], 91.6%; in assay [4], 0.068%. The values for the IC50 (read off the curve) in [5] and in [9] were 6 nM and 3 nM, respectively. Besides, the kon (as a rule, the second-order rate constant of association) in assay [7] came to 442000 M⁻¹ s⁻¹. In addition, the Kd (usually the constant that tells how readily two partners part at equilibrium) in assay [8] worked out at 0.23 nM.

B2: 1.134.9-u1-IgG1L (antibody, V domains shown)
VH: QVQLQESGPGLVKPSGTLSLTCAVSGGSISSYNWWSWVRQPPGKGLEWIGEIYHGGNTNYNPSLKSRVTMSVDNSKNQFSLKLSSVTAADTAVYYCARAPGDWGGSPYFDFWGQGTLVTVSS
VL: SSELTQDPAVSVALGQTVRITCQGDNLRTYYASWYQQKPGQAPILLIYGRNKRPSGIPDRFSGSSSGNTASLTITGAQAEDEAAYYCNSRDSSGNPVVFGGGTKLTVL
Consider B2, for which the MFI worked out at 42.7 in [11]; 211 in assay [12]; 9400 in assay [13]; 6440 in assay [14]; 3800 in [15]; 61 in [16]. The MFI in assay [17] was 43.2; in assay [18], 9160; in assay [19] it was 49.5; in [20], 44.1; in [21] it was 24100. Further, the PE + % in assay [11] turned out to be 0.624%; in assay [12], 6.75%; in assay [13] it was 74%; in assay [14] it was 75.3%; in [15] it was 66.1%; in [16] it was 1.73%. The PE + % worked out at 0.678% in assay [17]; 80.3% in assay [18]; 0.904% in [19]; 0.668% in assay [20]; 96.6% in assay [21].

B3: 1.214.23-u1-IgG1K (antibody, V domains shown)
VH: QVQLQESGPGLVKPSGTLSLTCVVSGGSISNRNWWSWVRQPPGKGLEWIGEIFHSGNTNYNPSLKSRVTISVDKSKNQFSLKVNSVTAADTAVYYCAKSFAVALDSWGQGTLVTVSS
VL: DIQLTQSPSFLSASVGDRVTITCRASQDINSYLAWCQQKPGKAPKLLIYAASSLQSGVPSRFSGTGSGTEFTLTISSLQPEDFATYYCQQLFSYPITFGQGTRLEIK
As for B3, the MFI amounted to 19600 in assay [11]; 113 in assay [12]; 6260 in [13]; 5420 in assay [14]; 2250 in [15]; 21700 in [16]. In addition, the MFI in [17] turned out to be 42.6; in assay [18], 6540; in assay [19], 23300; in assay [20] it was 80.1; in [21], 23200. Further, the PE + % in [11] was 94.4%; in [12] it was 2.31%; in [13], 70.8%; in assay [14] it was 82.9%; in assay [15], 70%; in assay [16], 96.5%. In addition, the PE + % in assay [17] is 0.743%; in assay [18], 81.5%; in assay [19], 92.8%; in [20] it was 0.244%; in assay [21] it was 97.7%.
